A word on the Kd: it is a measure of binding affinity in units of concentration.

B1: VH SEQ ID NO 538 / VL SEQ ID NO 318 (antibody, IgG4, V domains shown)
VH: QVQLQESGPGLVEPSQTLSLTCTVSGYSITSDSAWSWIRQPPGKKLEWIGYIQYSGSTNYNPSLKSRVTISRDTSKNQFSLKLSSVTAADTAVYYCARSVNYYGNSFAVGYWGQGTLVTVSS
VL: EIVLTQSPATLSLSPGERATLSCRASQGISDYLHWYQQKPGEAPRLLIKYTSQPATGIPARFSGSGSGTDFTLTISSLEPEDFAVYYCQNGHSFPLTFGQGTKLEIK
notes: humanized 11F2; IgG4 S228P/kappa
B2: VH SEQ ID NO 546 / VL SEQ ID NO 406 (antibody, IgG4, V domains shown)
VH: B1 VH with L117S
VL: B1 VL with I29V, H34A, E42Q, T51A, Q100A
notes: as for B1
B3: VH SEQ ID NO 538 / VL SEQ ID NO 390 (antibody, IgG4, V domains shown)
VH: B1 VH
VL: B1 VL with I29V, H34A, T51A
notes: as for B1
B4: VH SEQ ID NO 538 / VL SEQ ID NO 398 (antibody, IgG4, V domains shown)
VH: B1 VH
VL: B1 VL with I29V, H34A
notes: as for B1
B5: VH SEQ ID NO 538 / VL SEQ ID NO 454 (antibody, IgG4, V domains shown)
VH: B1 VH
VL: B1 VL with I29V, T51A
notes: as for B1
B6: VH SEQ ID NO 546 / VL SEQ ID NO 334 (antibody, IgG4, V domains shown)
VH: B1 VH with L117S
VL: B1 VL with E42Q, T51A
notes: as for B1
B7: VH SEQ ID NO 538 / VL SEQ ID NO 446 (antibody, IgG4, V domains shown)
VH: B1 VH
VL: B1 VL with I29V, H34A, E42Q
notes: as for B1
B8: VH SEQ ID NO 538 / VL SEQ ID NO 326 (antibody, IgG4, V domains shown)
VH: B1 VH
VL: B1 VL with A84G, Q100A, I106L
notes: as for B1
B9: VH SEQ ID NO 538 / VL SEQ ID NO 414 (antibody, IgG4, V domains shown)
VH: B1 VH
VL: B1 VL with I29V, H34A, E42Q, T51A
notes: as for B1
B10: VH SEQ ID NO 538 / VL SEQ ID NO 470 (antibody, IgG4, V domains shown)
VH: B1 VH
VL: B1 VL with I29V, E42Q, T51A
notes: as for B1
B11: VH SEQ ID NO 538 / VL SEQ ID NO 478 (antibody, IgG4, V domains shown)
VH: B1 VH
VL: B1 VL with I29V, E42Q, T51A, N90Q
notes: as for B1
B12: VH SEQ ID NO 546 / VL SEQ ID NO 446 (antibody, IgG4, V domains shown)
VH: B1 VH with L117S
VL: B1 VL with I29V, H34A, E42Q
notes: as for B1
B13: VH SEQ ID NO 546 / VL SEQ ID NO 318 (antibody, IgG4, V domains shown)
VH: B1 VH with L117S
VL: B1 VL
notes: as for B1
B14: VH SEQ ID NO 546 / VL SEQ ID NO 390 (antibody, IgG4, V domains shown)
VH: B1 VH with L117S
VL: B1 VL with I29V, H34A, T51A
notes: as for B1
B15: VH SEQ ID NO 538 / VL SEQ ID NO 438 (antibody, IgG4, V domains shown)
VH: B1 VH
VL: B1 VL with I29V, H34A, E42Q, T51A, F83V
notes: as for B1
B16: VH SEQ ID NO 546 / VL SEQ ID NO 382 (antibody, IgG4, V domains shown)
VH: B1 VH with L117S
VL: B1 VL with I29L, T51A
notes: as for B1
B17: VH SEQ ID NO 546 / VL SEQ ID NO 342 (antibody, IgG4, V domains shown)
VH: B1 VH with L117S
VL: B1 VL with E42Q, T69R, Q100A, I106L
notes: as for B1
B18: VH SEQ ID NO 546 / VL SEQ ID NO 438 (antibody, IgG4, V domains shown)
VH: B1 VH with L117S
VL: B1 VL with I29V, H34A, E42Q, T51A, F83V
notes: as for B1
B19: VH SEQ ID NO 546 / VL SEQ ID NO 350 (antibody, IgG4, V domains shown)
VH: B1 VH with L117S
VL: B1 VL with E42Q, Q100A, I106L
notes: as for B1
B20: VH SEQ ID NO 538 / VL SEQ ID NO 374 (antibody, IgG4, V domains shown)
VH: B1 VH
VL: B1 VL with I29L, H34A, E42Q
notes: as for B1
B21: VH SEQ ID NO 546 / VL SEQ ID NO 398 (antibody, IgG4, V domains shown)
VH: B1 VH with L117S
VL: B1 VL with I29V, H34A
notes: as for B1
B22: VH SEQ ID NO 538 / VL SEQ ID NO 366 (antibody, IgG4, V domains shown)
VH: B1 VH
VL: B1 VL with I29L, H34A, T51A
notes: as for B1
B23: VH SEQ ID NO 546 / VL SEQ ID NO 310 (antibody, IgG4, V domains shown)
VH: B1 VH with L117S
VL: B1 VL with H34A, E42Q, T51A
notes: as for B1
B24: VH SEQ ID NO 546 / VL SEQ ID NO 430 (antibody, IgG4, V domains shown)
VH: B1 VH with L117S
VL: B1 VL with I29V, H34A, E42Q, T51A, A84G
notes: as for B1
B25: VH SEQ ID NO 538 / VL SEQ ID NO 494 (antibody, IgG4, V domains shown)
VH: B1 VH
VL: B1 VL with I29V, E42Q, T51A, F83V
notes: as for B1
B26: VH SEQ ID NO 538 / VL SEQ ID NO 358 (antibody, IgG4, V domains shown)
VH: B1 VH
VL: B1 VL with E42Q
notes: as for B1
B27: VH SEQ ID NO 538 / VL SEQ ID NO 334 (antibody, IgG4, V domains shown)
VH: B1 VH
VL: B1 VL with E42Q, T51A
notes: as for B1
B28: VH SEQ ID NO 538 / VL SEQ ID NO 422 (antibody, IgG4, V domains shown)
VH: B1 VH
VL: B1 VL with I29V, H34A, E42Q, T51A, N90Q
notes: as for B1
B29: VH SEQ ID NO 546 / VL SEQ ID NO 422 (antibody, IgG4, V domains shown)
VH: B1 VH with L117S
VL: B1 VL with I29V, H34A, E42Q, T51A, N90Q
notes: as for B1
B30: VH SEQ ID NO 546 / VL SEQ ID NO 326 (antibody, IgG4, V domains shown)
VH: B1 VH with L117S
VL: B1 VL with A84G, Q100A, I106L
notes: as for B1
B31: VH SEQ ID NO 538 / VL SEQ ID NO 342 (antibody, IgG4, V domains shown)
VH: B1 VH
VL: B1 VL with E42Q, T69R, Q100A, I106L
notes: as for B1
B32: VH SEQ ID NO 538 / VL SEQ ID NO 502 (antibody, IgG4, V domains shown)
VH: B1 VH
VL: B1 VL with I29V, E42Q
notes: as for B1
B33: VH SEQ ID NO 538 / VL SEQ ID NO 382 (antibody, IgG4, V domains shown)
VH: B1 VH
VL: B1 VL with I29L, T51A
notes: as for B1
B34: VH SEQ ID NO 546 / VL SEQ ID NO 358 (antibody, IgG4, V domains shown)
VH: B1 VH with L117S
VL: B1 VL with E42Q
notes: as for B1
B35: VH SEQ ID NO 538 / VL SEQ ID NO 430 (antibody, IgG4, V domains shown)
VH: B1 VH
VL: B1 VL with I29V, H34A, E42Q, T51A, A84G
notes: as for B1
B36: VH SEQ ID NO 546 / VL SEQ ID NO 374 (antibody, IgG4, V domains shown)
VH: B1 VH with L117S
VL: B1 VL with I29L, H34A, E42Q
notes: as for B1
B37: VH SEQ ID NO 546 / VL SEQ ID NO 366 (antibody, IgG4, V domains shown)
VH: B1 VH with L117S
VL: B1 VL with I29L, H34A, T51A
notes: as for B1
B38: VH SEQ ID NO 538 / VL SEQ ID NO 350 (antibody, IgG4, V domains shown)
VH: B1 VH
VL: B1 VL with E42Q, Q100A, I106L
notes: as for B1
B39: VH SEQ ID NO 538 / VL SEQ ID NO 486 (antibody, IgG4, V domains shown)
VH: B1 VH
VL: B1 VL with I29V, E42Q, T51A, A84G
notes: as for B1
B40: VH SEQ ID NO 538 / VL SEQ ID NO 462 (antibody, IgG4, V domains shown)
VH: B1 VH
VL: B1 VL with I29V, E42Q, T51A, Q100A
notes: as for B1
B41: VH SEQ ID NO 546 / VL SEQ ID NO 414 (antibody, IgG4, V domains shown)
VH: B1 VH with L117S
VL: B1 VL with I29V, H34A, E42Q, T51A
notes: as for B1
B42: VH SEQ ID NO 538 / VL SEQ ID NO 406 (antibody, IgG4, V domains shown)
VH: B1 VH
VL: B1 VL with I29V, H34A, E42Q, T51A, Q100A
notes: as for B1

Changes are numbered by the printed parent chain. In names and notes the source's numbering stands.

The assay has as its target T1, recombinant human activated Factor VII (FVIIa) (human, UniProt P08709 61-212; P08709 213-466, ten glutamate residues of the Gla domain may be gamma-carboxylated).
T1 construct: chains tethered by a disulfide bond; also called Factor VIIa; rFVIIa
T1 sequence 1: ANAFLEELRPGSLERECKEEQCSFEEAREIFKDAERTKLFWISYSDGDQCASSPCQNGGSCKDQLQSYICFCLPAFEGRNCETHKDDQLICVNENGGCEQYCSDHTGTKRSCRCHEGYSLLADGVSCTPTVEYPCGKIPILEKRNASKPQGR
T1 sequence 2: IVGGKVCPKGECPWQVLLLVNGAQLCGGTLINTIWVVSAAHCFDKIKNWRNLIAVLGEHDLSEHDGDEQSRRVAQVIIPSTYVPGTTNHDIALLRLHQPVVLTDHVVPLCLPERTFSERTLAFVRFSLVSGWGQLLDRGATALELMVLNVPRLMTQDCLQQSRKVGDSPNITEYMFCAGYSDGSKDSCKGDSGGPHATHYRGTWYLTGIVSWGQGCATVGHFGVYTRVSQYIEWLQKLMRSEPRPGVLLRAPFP
Nature of the assay: BLI (Fortebio).
As for B1, the Kd came out at 0.64 nM.

B2: the Kd amounted to 6.7 nM.

For B3, the Kd turned out to be 7 nM.

In the case of B4, the Kd worked out at 11 nM.

In the case of B5, the Kd stood at 1.2 nM.

On to B6, for which the Kd was 1.1 nM.

With B7, the Kd was 12 nM.

On to B8, for which the Kd is 0.58 nM.

Regarding B9, the Kd amounted to 6.9 nM.

As to B10, the Kd is 1 nM.

B11: the Kd was determined as 1.8 nM.

On to B12, for which the Kd came to 10 nM.

For B13, the Kd was found to be 0.86 nM.

For B14, the Kd was found to be 7 nM.

For B15, the Kd was 8.3 nM.

For B16, the dissociation constant Kd worked out at 1.3 nM.

For B17, the dissociation constant Kd is 1.2 nM.

With B18, the Kd was 8 nM.

Take B19: the Kd stood at 0.96 nM.

On to B20, for which the dissociation constant (Kd) stood at 7.4 nM.

Turning to B21, the Kd was 11 nM.

As to B22, the Kd was 6.2 nM.

Consider B23, for which the Kd came to 3.2 nM.

For the molecule B24, the Kd is 8.1 nM.

In the case of B25, the Kd was 1.1 nM.

Take B26: the dissociation constant Kd was 0.89 nM.

Take B27: the Kd worked out at 0.97 nM.

Consider B28, for which the Kd was determined as 21 nM.

Consider B29, for which the Kd was 24 nM.

For B30, the Kd came to 0.81 nM.

For B31, the Kd came out at 1.2 nM.

Take B32: the Kd amounted to 0.88 nM.

For the molecule B33, the equilibrium dissociation constant (Kd) is 1.2 nM.

As to B34, the Kd amounted to 0.99 nM.

For B35, the Kd was determined as 8.3 nM.

For B36, the Kd came out at 6.8 nM.

For B37, the Kd was determined as 5.7 nM.

With B38, the Kd is 1 nM.

As for B39, the Kd came to 1 nM.

Regarding B40, the Kd came out at 1.3 nM.

B41: the Kd was 7.1 nM.

Regarding B42, the Kd was 6.1 nM.
